Columns and labels:
[1] = biological target: SpyCas9;AcrIIA2b (AcrIIA2b.3) (Streptococcus pyogenes;Listeria phage?, UniProt Q99ZW2;PDB:6MCC_3 1-1368;1-130, |); assay: cryo-EM
AcrIIA2 (AcrIIA2a.1) = biological target: T1, AcrIIA2 (AcrIIA2a.1) (Listeria monocytogenes phage/prophage, UniProt PDB:6MCB_3 1-123); assay: size-exclusion chromatography
T1 sequence: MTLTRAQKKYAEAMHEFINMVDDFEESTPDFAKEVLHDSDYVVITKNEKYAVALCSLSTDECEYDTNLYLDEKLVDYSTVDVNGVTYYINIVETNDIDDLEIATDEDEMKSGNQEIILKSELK

[2] = biological target: SpyCas9;AcrIIA2 (AcrIIA2a.1) (Streptococcus pyogenes;Listeria …, UniProt Q99ZW2;PDB:6MCB_3 1-1368;1-123, |); assay: cryo-EM

B1: sgRNA (structured_RNA)
RNA: GGCGCAUAAAGAUGAGACGCGUUUUAGAGCUAUGCUGUUUUGAAAAAAACAGCAUAGCAAGUUAAAAUAAGGCUAGUCCGUUAUCAACUUGAAAAAGUGGCACCGAGUCGGUGCUU
- binding result [1]: binds
- binding result (AcrIIA2 (AcrIIA2a.1)): no binding
- binding result [2]: binds
